Laboratory results published in paper PMC8854693, “Development and characterization of functional antibodies targeting NMDA receptors” (Nature Communications, 2022).

What was measured:
[1] = target: T1, purified intact rat GluN1a-GluN2B NMDA receptor (Rattus norvegicus, UniProt P35439;Q00960); assay: ELISA; 96-well MaxiSorp plates covered by the GluN1a-GluN2B NMDAR proteins, in the presence of 0.005% LMNG (methods; 0.01% in the results); state of the IgG not told
T1 construct: rat GluN1a (GluN1-1a splice variant, without the exon 5-encoded motif); called intact; rat GluN2B; the immunogen and the ELISA antigen

[2] = target: T2, intact GluN1b-GluN2B NMDA receptor (Rattus norvegicus, strain); assay: cryo-EM structure; receptor mixed with Fab at 1:3 (w:w), purified on Superose 6; 1 mM glycine and 1 mM glutamate; 0.002% LMNG, 0.1% digitonin; details: both partners purified
T2 construct: called intact; density seen for ATD, LBD and TMD; rat GluN2B; heterotetramer; Also used here for the functional rows on receptors expressed in oocytes or HEK293 cells from wild-type rat cRNA or cDNA; also called GluN1-1b-GluN2B; GluN1b-2B; source: Sf9 insect cells (EarlyBac), solubilised in 0.5% LMNG, purified (Strep-Tactin Sepharose, Superose 6); copies: 2 + 2

| binding result [1] | stoichiometry N [2] | Binder |
| --- | --- | --- |
| binds | – | IgG2, mouse monoclonal antibody against the GluN1-GluN2B NMDA receptor (antibody, V domains shown, the Fab part of the heavy chain is in the crystal structure of Fab2 (PDB 7TE4) and in the cryo-EM models; the light chain is in the crystal structure of Fab2 (PDB 7TE4) and in the cryo-EM models; mouse immunoglobulin-gamma; raised against purified intact rat GluN1a-GluN2B NMDAR; source: hybridoma cell culture supernatant, purified (rProtein-A Sepharose)) VH: DVKLQESGGGLVQPGGSLKLSCAASGFTFSSYTMSWVRQTPEKRLEWVAYISNGGGGTYYPDTVKGRFTISRDNAKNTLYLQMNSLKEDTAMYYCARPSRGGSSYWYFDVWGAGTTVTVSS VL: DIQMTQSPSSLSASLGGKVTITCKASQDINKYIAWYQHKPGKGPRLLIHYTSSLQPGIPSRFSGSGSGRDYSFSISNLEPEDIATYYCLQYDNLYTFGGGTKLEIK |
| – | 2 Fab2 per heterotetrameric channel | Fab2, antigen-binding fragment of IgG2 (Fab, V domains shown, heavy chain of the crystal structure of Fab2 (PDB 7TE4); as the Fab part of the heavy chain of m1; light chain of the crystal structure of Fab2 (PDB 7TE4); as the light chain of m1; source: papain proteolysis of purified IgG2, Fc removed on rProtein-A Sepharose) VH: DVKLQESGGGLVQPGGSLKLSCAASGFTFSSYTMSWVRQTPEKRLEWVAYISNGGGGTYYPDTVKGRFTISRDNAKNTLYLQMNSLKEDTAMYYCARPSRGGSSYWYFDVWGAGTTVTVSS VL: DIQMTQSPSSLSASLGGKVTITCKASQDINKYIAWYQHKPGKGPRLLIHYTSSLQPGIPSRFSGSGSGRDYSFSISNLEPEDIATYYCLQYDNLYTFGGGTKLEIK |
| binds | – | IgG5, mouse monoclonal antibody against the GluN1-GluN2B NMDA receptor (antibody, V domains shown, the Fab part of the heavy chain is in the crystal structure of GluN1b-GluN2B ATD-Fab5 (PDB 7TE6) and in the cryo-EM models; the light chain is in the crystal structure of GluN1b-GluN2B ATD-Fab5 (PDB 7TE6) and in the cryo-EM models; mouse immunoglobulin-gamma; source: hybridoma cell culture supernatant, purified (rProtein-A Sepharose)) VH: DVKLQESGGGSVKLGGSLKLSCVVSGFTFSTYYMSWVRQTPEKRLELVAVINSNGGNTYYPDNVKGRFTISRDNAENTLYLQMSSLKSEDTALYYCARRDYDGFAMDYWGQGTSVTVSS VL: DIQLTQSPASLAVSLGQRATISCRASQSVSTSRYSYMHWYQHKPGQPPKLLIKYASNLESGVPARFSGSGSGTDFTLNIHPVEEEDTATYYCQHSWENPYTFGGGTKLEIK |
